Measurements from patent US20250076311A1 (Chugai, published 2025).

Key:
Assay in all cases: SPR (Biacore), 25C, FcgR bound per antibody captured
[1] = target: T1, cynomolgus monkey FcγRIIa2 extracellular domain, His-tagged (cynomolgus monkey)
T1 construct: also called cyno FcgRIIa2
T1 chain: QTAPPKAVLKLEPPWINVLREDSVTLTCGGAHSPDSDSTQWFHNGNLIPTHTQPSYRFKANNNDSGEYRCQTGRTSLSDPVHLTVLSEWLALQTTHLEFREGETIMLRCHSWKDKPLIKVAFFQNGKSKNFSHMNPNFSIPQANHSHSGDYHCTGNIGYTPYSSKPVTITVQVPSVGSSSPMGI
Description: (§1) In the next step, cross-reactivity of these substitutions to cynoFcγRs was evaluated.
(§2) The value of the amount of FcγR binding was obtained by dividing the amount of FcγR bound by the amount of each antibody captured.

[2] = target: T2, cynomolgus monkey FcγRIIIaS extracellular domain, His-tagged (cynomolgus monkey, UniProt Q8SPW2 21-206 at identity 1.00))
T2 construct: also called cyno FcgRIIIaS
T2 chain: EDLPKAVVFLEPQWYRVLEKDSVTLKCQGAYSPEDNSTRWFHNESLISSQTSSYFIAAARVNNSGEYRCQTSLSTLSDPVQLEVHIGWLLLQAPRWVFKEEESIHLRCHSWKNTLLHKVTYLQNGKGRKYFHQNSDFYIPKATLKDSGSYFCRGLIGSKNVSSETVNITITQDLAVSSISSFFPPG
Description: as §1, §2

[3] = target: T3, cynomolgus monkey FcγRIIa3 extracellular domain, His-tagged (cynomolgus monkey)
T3 construct: also called cyno FcgRIIa3
T3 chain: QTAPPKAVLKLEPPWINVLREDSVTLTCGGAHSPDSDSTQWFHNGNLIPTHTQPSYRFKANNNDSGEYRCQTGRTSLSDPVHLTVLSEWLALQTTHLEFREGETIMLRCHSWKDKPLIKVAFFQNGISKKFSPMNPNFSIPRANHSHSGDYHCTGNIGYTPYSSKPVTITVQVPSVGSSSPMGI
Description: as §1, §2

[4] = target: T4, cynomolgus monkey FcγRIIa1 extracellular domain, His-tagged (cynomolgus monkey)
T4 construct: also called cyno FcgRIIa1
T4 chain: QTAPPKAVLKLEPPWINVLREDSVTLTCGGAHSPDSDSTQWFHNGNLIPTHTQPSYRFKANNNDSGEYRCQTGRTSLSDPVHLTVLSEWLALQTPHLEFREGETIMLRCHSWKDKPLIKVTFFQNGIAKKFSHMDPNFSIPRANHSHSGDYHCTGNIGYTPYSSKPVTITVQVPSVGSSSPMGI
Description: as §1, §2

[5] = target: T5, cynomolgus monkey FcγRIIb extracellular domain, His-tagged (cynomolgus monkey)
T5 construct: also called cyno FcgRIIb
T5 chain: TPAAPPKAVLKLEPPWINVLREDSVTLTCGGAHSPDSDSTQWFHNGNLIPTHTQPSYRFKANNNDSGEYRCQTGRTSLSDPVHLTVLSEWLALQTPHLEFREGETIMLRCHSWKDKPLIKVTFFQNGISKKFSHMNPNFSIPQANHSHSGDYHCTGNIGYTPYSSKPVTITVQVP
Description: as §1, §2

Row | Binder | Binding to cynoFcgRs (SG1 = 100) [1] | Binding to cynoFcgRs (SG1 = 100) [2] | Binding to cynoFcgRs (SG1 = 100) [3] | Binding to cynoFcgRs (SG1 = 100) [4] | Binding to cynoFcgRs (SG1 = 100) [5]
1 | M103205H795-MY001 / M103202L889-SK1 (antibody, human IgG1, kappa, name in EU numbering, also called G236N) heavy: not shown light: DIVMTQSPATLSLSPGERATLSCTSSQSVYHANWLSWFQQKPGQPPKLLIYWASTLAYGVPSRFSGSGSGTDFTLTISSLQPEDAATYYCAGGYGGGRYAFGQGTKVEIKRTVAAPSVFIFPPSDEQLKSGTASVVCLLNNFYPREAKVQWKVDNALQSGNSQESVTEQDSKDSTYSLSSTLTLSKADYEKHKVYACEVTHQGLSSPVTKSFNRGEC | 86 | 15 | 62 | 83 | 85
2 | M103205H795-SG170 / M103202L889-SK1 (antibody, human IgG1, kappa, name in EU numbering, also called P238Q) heavy: not shown light: DIVMTQSPATLSLSPGERATLSCTSSQSVYHANWLSWFQQKPGQPPKLLIYWASTLAYGVPSRFSGSGSGTDFTLTISSLQPEDAATYYCAGGYGGGRYAFGQGTKVEIKRTVAAPSVFIFPPSDEQLKSGTASVVCLLNNFYPREAKVQWKVDNALQSGNSQESVTEQDSKDSTYSLSSTLTLSKADYEKHKVYACEVTHQGLSSPVTKSFNRGEC | 15 | 12 | 21 | 16 | 18
3 | M103205H795-SG172 / M103202L889-SK1 (antibody, human IgG1, kappa, name in EU numbering, also called V266F) heavy: not shown light: DIVMTQSPATLSLSPGERATLSCTSSQSVYHANWLSWFQQKPGQPPKLLIYWASTLAYGVPSRFSGSGSGTDFTLTISSLQPEDAATYYCAGGYGGGRYAFGQGTKVEIKRTVAAPSVFIFPPSDEQLKSGTASVVCLLNNFYPREAKVQWKVDNALQSGNSQESVTEQDSKDSTYSLSSTLTLSKADYEKHKVYACEVTHQGLSSPVTKSFNRGEC | 17 | 31 | 27 | 14 | 16
4 | M103205H795-SG173 / M103202L889-SK1 (antibody, human IgG1, kappa, name in EU numbering, also called S267L) heavy: not shown light: DIVMTQSPATLSLSPGERATLSCTSSQSVYHANWLSWFQQKPGQPPKLLIYWASTLAYGVPSRFSGSGSGTDFTLTISSLQPEDAATYYCAGGYGGGRYAFGQGTKVEIKRTVAAPSVFIFPPSDEQLKSGTASVVCLLNNFYPREAKVQWKVDNALQSGNSQESVTEQDSKDSTYSLSSTLTLSKADYEKHKVYACEVTHQGLSSPVTKSFNRGEC | 14 | 24 | 21 | 13 | 12
5 | M103205H795-SG167 / M103202L889-SK1 (antibody, human IgG1, kappa, name in EU numbering, also called P238Y) heavy: not shown light: DIVMTQSPATLSLSPGERATLSCTSSQSVYHANWLSWFQQKPGQPPKLLIYWASTLAYGVPSRFSGSGSGTDFTLTISSLQPEDAATYYCAGGYGGGRYAFGQGTKVEIKRTVAAPSVFIFPPSDEQLKSGTASVVCLLNNFYPREAKVQWKVDNALQSGNSQESVTEQDSKDSTYSLSSTLTLSKADYEKHKVYACEVTHQGLSSPVTKSFNRGEC | 14 | 14 | 38 | 18 | 22
6 | M103205H795-SG165 / M103202L889-SK1 (antibody, human IgG1, kappa, name in EU numbering, also called G237Y) heavy: not shown light: DIVMTQSPATLSLSPGERATLSCTSSQSVYHANWLSWFQQKPGQPPKLLIYWASTLAYGVPSRFSGSGSGTDFTLTISSLQPEDAATYYCAGGYGGGRYAFGQGTKVEIKRTVAAPSVFIFPPSDEQLKSGTASVVCLLNNFYPREAKVQWKVDNALQSGNSQESVTEQDSKDSTYSLSSTLTLSKADYEKHKVYACEVTHQGLSSPVTKSFNRGEC | 17 | 7 | 30 | 18 | 30
7 | M103205H795-SG177 / M103202L889-SK1 (antibody, human IgG1, kappa, name in EU numbering, also called N325L) heavy: not shown light: DIVMTQSPATLSLSPGERATLSCTSSQSVYHANWLSWFQQKPGQPPKLLIYWASTLAYGVPSRFSGSGSGTDFTLTISSLQPEDAATYYCAGGYGGGRYAFGQGTKVEIKRTVAAPSVFIFPPSDEQLKSGTASVVCLLNNFYPREAKVQWKVDNALQSGNSQESVTEQDSKDSTYSLSSTLTLSKADYEKHKVYACEVTHQGLSSPVTKSFNRGEC | 15 | 21 | 25 | 15 | 18
8 | M103205H795-SG174 / M103202L889-SK1 (antibody, human IgG1, kappa, name in EU numbering, also called S267H) heavy: not shown light: DIVMTQSPATLSLSPGERATLSCTSSQSVYHANWLSWFQQKPGQPPKLLIYWASTLAYGVPSRFSGSGSGTDFTLTISSLQPEDAATYYCAGGYGGGRYAFGQGTKVEIKRTVAAPSVFIFPPSDEQLKSGTASVVCLLNNFYPREAKVQWKVDNALQSGNSQESVTEQDSKDSTYSLSSTLTLSKADYEKHKVYACEVTHQGLSSPVTKSFNRGEC | 16 | 15 | 20 | 13 | 11
9 | M103205H795-SG168 / M103202L889-SK1 (antibody, human IgG1, kappa, name in EU numbering, also called P238E) heavy: not shown light: DIVMTQSPATLSLSPGERATLSCTSSQSVYHANWLSWFQQKPGQPPKLLIYWASTLAYGVPSRFSGSGSGTDFTLTISSLQPEDAATYYCAGGYGGGRYAFGQGTKVEIKRTVAAPSVFIFPPSDEQLKSGTASVVCLLNNFYPREAKVQWKVDNALQSGNSQESVTEQDSKDSTYSLSSTLTLSKADYEKHKVYACEVTHQGLSSPVTKSFNRGEC | 16 | 13 | 30 | 21 | 28
10 | M103205H795-SG176 / M103202L889-SK1 (antibody, human IgG1, kappa, name in EU numbering, also called N325I) heavy: not shown light: DIVMTQSPATLSLSPGERATLSCTSSQSVYHANWLSWFQQKPGQPPKLLIYWASTLAYGVPSRFSGSGSGTDFTLTISSLQPEDAATYYCAGGYGGGRYAFGQGTKVEIKRTVAAPSVFIFPPSDEQLKSGTASVVCLLNNFYPREAKVQWKVDNALQSGNSQESVTEQDSKDSTYSLSSTLTLSKADYEKHKVYACEVTHQGLSSPVTKSFNRGEC | 15 | 20 | 19 | 14 | 16
11 | M103205H795-SG166 / M103202L889-SK1 (antibody, human IgG1, kappa, name in EU numbering, also called G237D) heavy: not shown light: DIVMTQSPATLSLSPGERATLSCTSSQSVYHANWLSWFQQKPGQPPKLLIYWASTLAYGVPSRFSGSGSGTDFTLTISSLQPEDAATYYCAGGYGGGRYAFGQGTKVEIKRTVAAPSVFIFPPSDEQLKSGTASVVCLLNNFYPREAKVQWKVDNALQSGNSQESVTEQDSKDSTYSLSSTLTLSKADYEKHKVYACEVTHQGLSSPVTKSFNRGEC | 10 | 5 | 17 | 10 | –
12 | M103205H795-SG178 / M103202L889-SK1 (antibody, human IgG1, kappa, name in EU numbering, also called N325E) heavy: not shown light: DIVMTQSPATLSLSPGERATLSCTSSQSVYHANWLSWFQQKPGQPPKLLIYWASTLAYGVPSRFSGSGSGTDFTLTISSLQPEDAATYYCAGGYGGGRYAFGQGTKVEIKRTVAAPSVFIFPPSDEQLKSGTASVVCLLNNFYPREAKVQWKVDNALQSGNSQESVTEQDSKDSTYSLSSTLTLSKADYEKHKVYACEVTHQGLSSPVTKSFNRGEC | 21 | 36 | 29 | 22 | 26
13 | M103205H795-SG169 / M103202L889-SK1 (antibody, human IgG1, kappa, name in EU numbering, also called P238M) heavy: not shown light: DIVMTQSPATLSLSPGERATLSCTSSQSVYHANWLSWFQQKPGQPPKLLIYWASTLAYGVPSRFSGSGSGTDFTLTISSLQPEDAATYYCAGGYGGGRYAFGQGTKVEIKRTVAAPSVFIFPPSDEQLKSGTASVVCLLNNFYPREAKVQWKVDNALQSGNSQESVTEQDSKDSTYSLSSTLTLSKADYEKHKVYACEVTHQGLSSPVTKSFNRGEC | 16 | 22 | 32 | 17 | 22
